Source: the DeepSol protein solubility set

Assay: soluble on expression in E. coli; label from the status in PepcDB or PDB records
For “MGSDKIHHHHHHMVTNVRIGAMQAYMVAEPWNTRAITGNENIGFTFAQGKEVWLGHPDRLLGVMESFIDKYPKTYRSLVKAMIEACQYCSKAENRQEVAELLTERSFTGARPKKKGAPIAKFTSPGILGNYNYGGFDGKDRTIKAADTTIFFDIPDNLPKQPGEHSTFLWRSRSIWLMTQAARWGQIKEFPKNADKLAQQGWRTDLYREIASEMGIQCPKDDYKVEPPEVFIDKKGFDPSDPVGYLNSFAIRANAPTNFFMS”, the “soluble on expression in E. coli” value was “not soluble”.
In the case of “MGSDKIHHHHHHMWAYESVFYQIYPLGFCGAPFENDGVLEHRILKVNDWIPHIKKLGADAIYFSPVFESDTHGYNTRDYTKIDTRLGTNEDFAQVCDNLHKDGIKVVLDGVFNHVGRGFWAFQDVLKNRESSPYVNWFGRIAFDGNSNYNDGLWYEGWEGNYDLVKLNLRNEDVIQHIFSAIKGWVDEFDIDGLRLDVAYCLDHDFLRRLREFCDSLKPDFFLVGETLHGDYNQIMNDAMLHSVTNYECYKGLYSSFNSMNMFEINHSLLRQFGPEQWTLYKGKHLLSFVDNHDVTRVASILTNEKHLPLIYALAFGMPGIPCVYYGSEWGEKAKKEDGDPALRACFEAPQCNELTEWISKLAEAKKQSKALCYGNFYSVVLTNGQCVFGRECDGEKVFVCINAADQPFFAGFDMGKGDATDLITGEQVTLNGGLELPPYSAYFLR”, the “soluble on expression in E. coli” value was “not soluble”.
In the case of “MGSDKIHHHHHHMWFKNLKIYRLSAPWALNGDQLEECLARFAYQGGNNLEMQSLGWISPRENGLLAHTLNGQILLTLRAEKKLLPTTVVNQVAKARAQEIEEQQGYKPGRKQMKEIKERVTDELLPKAFSIYRDTRVWIDTVNHWLVIDAAASAKADEVIGLLVKTIDPLPLDNLYVEQSPAAAMTGWLAADEAPANFSIDQDTELRASGESRAAIRYVKHSIDVDDVRRHIQSGKQCTRLAMTWADRVSFVLTESLDVKRVAPLDVLKENPDAATQNDDEKFDSDMTLMTGEVAKLLAELVDSLGGEKRV”, the “soluble on expression in E. coli” value was “not soluble”.
With “MGSDKIHHHHHHMYCNMLISLLTFISVEILYNKSNKKYGGNDMSIVQLYDITQIKSFIEHSNYESASYLYKLPQQYNEIDVLITDAIESPGVFSIKENDSIKAIILSFAYDKNKFKVIGPFVADNYVLSVDTFETLFKAMTSNQPDDAVFNFSFEEGIQQYKPLMKVIQASYNFTDYYIEARTRLEEDMHQPNIIPYHKGFYRAFSKLHTTTFKYQAQSPQDIIDSLDDHHHLFLFVSEGLLKGYLYLEIDSQQSIAEIKYFSSHVDYRLKGIAFELLAYALQYAFDNFDIRKVYFKIRNKNNKLIERFNGLGFHINYEYIKFKFESRNVKDQTIPE” the “soluble on expression in E. coli” value was “not soluble”.
For “MGSDKIHHHHHHMYDAVIIGGGPGGYVCAIKLAQLGKKVALVEKDALGGTCTNRGCIPTKAMLTVSHLMDEMKEKASKYGLKVSGVEYDVAAIMKHVQKSVMMSRKGIEYLLKKNGVEVFKGTAVVENKNTVVVQETGEKLEAKNLVLAHGSVPSVFSPFDIDGVWTSDDVFNLKEFPKSLVIVGGGVIGVEFATFFGSFGVDVTIVEIAEHILPYEDSDVAEEVKKALKRKGVKILEKTKISSLSKVDDGFEVALENGETLKAEKVLLAAGRKPNIPEDVKALGVKIEKGVVTDSRMRTNVENVYAIGDIRSGIMLAHVAMYEGIVAAKNIAGEEEEMDYSAVPSIIFSSPEVASVGVREKDVNPEEVVISKFPVSANGRARTMLENIGFAKVIADKKDGTVLGMSIVSPSATDMIMEGVIAVKFRMKAEDLEKAIHPHPTLTETILGALEGVSGKPIHL”, the “soluble on expression in E. coli” value was “not soluble”.
With “MGSDKIHHHHHHMYKTYREEERKSVDRGIFKEVPLPCAFLDEVALDRNIQLIIELSGNKKIRIASKSLRSVPVMQKILAANDRFQGIMCFSPREVLFLIEQGFNDLLLGYPAYDDRALHEISLLTKQGLIITCMVDCEDHIVYLEKIAEKSKGCFRVCLDIDMSSRFLNFHFGVKRSPVRDVQGALKIVKRLKESSFLILDGVMGYEAQIAGVGDHIPNQRVKSKVISYLKKKSVLEVKARRGHIVKEIQNLGIELRFVNGGGTGSIKTTEQDHSVSEITIGSAFYAPKLFDYYKEVQLQPAVGFALPVVRKPAPTIYTCLGGGYIASGAIGKDKEPEIWRPNGAKLLALEGAGEVQTPIFYNGEERVEIGDSILFRHSKAGELCERFPFLYRVKEGEIVGEYSTYRGDGQCFL” the “soluble on expression in E. coli” value was “not soluble”.
For “MGSDKIHHHHHHMYLEAFTSHFNSIADSRQSAKVTYPLHDVLFVTLCGVIAGAEGWSEIHDYAAGHHTWFKEKGILTEGVPVDDTIARIISRIEPEQFRLCFANWMRAVHEMSDGHLIAIDGKTLRASYNREDRRSTIHMVNAFACANKVVLGQVKTANKSNEITAIPALLQLLDIEGALVSIDAMGCQTEIARQIVEQGGDYLLAVKVNQSSLHEAVVSAFSEARSNPLDGLVIEKNRGRIEARAYYVIPANQLQDNFPKWMKLNTLGMCLSYRHTKGKEAELTYRYYISSATLDEQLLANSVRGHWGIENSLHWVLDVSMKEDSCQIYQHHGAENWAMLRHISLNMLRAEPSKGSIPAKQKRAWMKPEYLESVLLAGLQLDEF”, the “soluble on expression in E. coli” value was “not soluble”.
For “MGSDKIHHHHHHMYLIRKKYITSLENILKKEGVIVDALSNDATIRYRSEEIGDEFTSVYNIQKLLNIAYASQGKESFGLLSYEYFHPGDYDIVNYIMMSSDNLLHALECLCRFSRLLYSGCQLTLDKKNTNTYCIGFTYLYPQDKNKEITRQFHELTVASLLAYCQWLTAANFTHFSSMEFSYPQPYGIRKYETLFACPMTFGTHRNCVYLNAEILLMPLVTSNASLFKLHEKHATCLIDILFNKTIKSRVRDSINKKLETGSCNIHSVASDLFMTPRTLQRRLEEEGAYFKDILEDVKMNLAEYYLIYSQYSLSQVAELVGYKDLSSFHRACLRWFRSSPGFFRERGCKKACLPMK”, the “soluble on expression in E. coli” value was “not soluble”.
In the case of “MGSDKIHHHHHHMYRAVIFDFDGTIIDTEQHLFNVINKHLEMHNADPISIDFYRSSIGGAATDLHDHLIKAIGSENKDKLYEEHHLTSTTLPMIDTIKSLMAFLKQRHIPMAIATSSVKAEIMPTFKALGLDDYIEVVVGREDVEQVKPDPELYLSAVQQLNYMPTQCLAIEDSVNGATAAIAAGLDVIVNTNKMTSAQDFSNVDYVAKDIDYDQIVARFFTK”, the “soluble on expression in E. coli” value was “not soluble”.
In the case of “MGSDKIHHHHHHMYVVFGATGQTGSAVANALLERNFPVRVVLRSDKAASTWREKGADVAIAEVTDVEAMTAAMREADAVYVMNPPAYNVSDMFALAEQIGECYVEALTNADARKVVLLSSVGSQHASGTGNILTTHILERMLGNLAVPVTVLRAASFMENWGSAAAIAAEQGVLPSFFAPLDRRLPMVSTEDIGRTAAEAMIEDWKGQRIIELHGPIDYSPNDVAAAFAAVLNRNVQAIAVPESDWQATISSFGFSPEAVNSYSEMMRGFNSGHIVFESSPEIETRTGQTAIEAAVDRLTGSKSK”, the “soluble on expression in E. coli” value was “not soluble”.
With “MGSDKIHHHHHHNGDEKIDSGMVQQDGEVLQLNVRVGDFAINDVSSIRATDSGSTGTFENGDRIGIIVLDADNNVLSDNIPYRYDGNIWSFDSNNDEGKTTIYYDNKATVYLAYFPYSKEVDNVINIDDLKGKFLPQGDQRSKDAYRASDLLVWSDTSGRPLKKLDIVFEHAYSLLSLSPSIKCKINGRRDFTYVPSSISDVSFNVGTEPLFPYQMNDGSYQIIISPKRAKVRWLYEYNKEMYSGAMPDTDLSANTCYTFTPVLKDIGDYTLDKAQMGDFYCKDESNNGYLIPGDVTALSADMNCLGIVLKSGKDSEGEWVDYCKYKQKYGITEMHTVHGYVLALYDANGGNACTWGLWSLTDINRGEPSTGFYGYKNTQGIISFAENENRTLKNGFPPVYWVTDYEYSHPAPANSSGWFLPSLGQCWYWMYNKAYLLSAVNKATGDNDYGWKLGYWSSSEDDYDPFLNAYYADTYVGAMDWDYKNSKHCVRACLAF” the “soluble on expression in E. coli” value was “not soluble”.
With “MGSDKIHHHHHHNLKDSDRIFTNLYGRHDYRLKGAMARGDWHKTKEIILKGSDWILGELKTSGLRGRGGAGFPSGMKWGFMNKPFDGRPKYLVVNADEGEPGTCKDREIMRHDPHKLIEGCLIGGVAMGARAAYIYIRGEFYNEACILQEAINEAYKAGYLGKDCLGTGYNFDVFVHRGAGAYICGEETALIESLEGKQGKPRLKPPFPADIGLFGCPTTVTNVETVAVAPTICRRGGDWFASFGRERNRGTKLFCISGQVNNPCTVEEEMSVPLKDLIERHCGGVIGGWDNLLAIIPGGSSVPLMPKN” the “soluble on expression in E. coli” value was “not soluble”.
For “MGSDKIHHHHHHNNDDDGTNKAQEIAGKYEGYSIGNCAMFTDYVMGEKSVATIVPNEDGTINVTYDSGSGEFKLNNIKVTSKTFEGSGQVELSMNDKPAGAKDFTLTGSIDEQQKLTLKVNVPSVMGGLTIEFIQGTLPISYHVSGTYNKEANLSVSVGSTTYPDITDCKVSIKRSSDDTVELTLKGLSNLNSSQTGRAMNLGDFTVTDVKVTSTDNSIFKIEGSINTTDTNNTPITGTLSGTVSNSETNITFTFKPGAMPIDITAMFKGKK”, the “soluble on expression in E. coli” value was “not soluble”.
For “MGSDKIHHHHHHQIPREPITQQPMSAMPPMPPAMQAPGSIYNPGYAGRPLFEDQRPRNVGDILTIVIAENINATKSSGANTNRQGNTSFDVPTAGFLGGLFNKANLSAQGANKFAATGGASAANTFNGTITVTVTNVLPNGNLVVSGEKQMLINQGNEFVRFSGIVNPNTISGQNSVYSTQVADARIEYSAKGYINEAETMGWLQRFFLNIAPW”, the “soluble on expression in E. coli” value was “not soluble”.
For “MGSDKIHHHHHHQIQQQSPYPKREFRGAWIQAVNGQFRGIPTEKLKQTLIDQLNSLQGAGINAIIFQVRPEADALYASQLEPWSRFLTGVQGQAPSPYWDPMQFMIDECHKRGMEFHAWINPYRVKTSLKSELSANHLYNIHPEWFVTYNNQLFFDPALPESRRHICMVVADIVSRYDVDAIHMDDYFYPYPAKGMDFPDDASFARYGGGFTNRADWRRSNVNILIQKIHETIRGLKPWVKFGISPFGIYRNEKNDPLGSKTNGLQNYDDLYADVLLWARNGWVDYNIPQIYWQIGHPAADYETLVKWWAKNTENRPLFIGQSVMNTIQNADPKNPSMNQLPRKMALERAYQTIGGSCQWPASAVVENAGKYRDALVQEYHKYPALVPVFDFMDDKAPGKVRKVKKVWTEDGYMLFWTPPKAKDEMDRAVQYVVYRFGDKEKVNIDDASHIVAVTRNNFYKLPYKDGKNKYRYVVTALDRLHNESKSVSKKVKL”, the “soluble on expression in E. coli” value was “not soluble”.
In the case of “MGSDKIHHHHHHSDAGKDRRKKQKQKERQEDDDNNDEPAGGSEMGESGKAKDEKERTSVLEKQAGKKGDDESSSSEEDKEDEDEKKDNSTVIIREENEIIKAEKELDEEKVDQFRQSRVLRFTRSADEARVLPTDAAKFKRDTITQTLKSKELNDGVQLPLDKKPTATASTN”, the “soluble on expression in E. coli” value was “not soluble”.
With “MGSDKIHHHHHHSESIIEEAVRKGEVLKGEIVPIDTALFRYAYRMRVQGDKAVILDLHNADYYYHVFTYPDFQYQSSFGKRGEGPGESIYAANIRFAGQDTVWVLDDGKGRMYQYSGIAGGKTPKQEKDILLDKRLFRSLDFDLKDASTVVIPDYSGENRFSWASLSSGELLRKSEQIPVSDPELLRESAPAVAQGWNSFVSFSPDKKILVSVTQFGDRLDIYSMASQKHIGELGGDGEPQFKVSPEGYGLPAGRICYYDVQVTDQYIYTIYDGRKFKDIMKLADAYQQGGKILRISTHEGDVVKTYVLDRPIAGIYVDEAAGMLFGLDVNADEQIVKFPLELE” the “soluble on expression in E. coli” value was “not soluble”.
In the case of “MGSDKIHHHHHHSFSLPGYLFGRCPDYSITYDKNDAQEQKDVYICDGNKSVVRIDSYKWNSSSSDWVYDGKTVMENDNQGRTLVAISYSAADVAGEKTEYTYTGNGYEKFSVTSSSFEGGAWKAEAKVDIEATFNKDKYPVSILMTGTAEGETFKMKMEWSYDKNVTKTSSSIDFGGSWMLMSESKTEIVDAGNPMISKNYQKMYFPAETSWEYSGKTHDYFNGTTSIAPVVEENELKLHIYGDVLEVQGTESGISIYAITGGKMAESKSNRIDISRLPAGIYLLNTARGSIKFIHK”, the “soluble on expression in E. coli” value was “not soluble”.
